Assay results reported in patent US8124349B2, “Toll-like receptor assays” (University of Massachusetts, priority 2003, dated 2012).

Key:
TLR9^YFP = molecular target: T1, TLR9^YFP (Homo sapiens, UniProt Q9NR96); assay: Competition plate assay: TLR9^YFP binding to plate-bound biotinylated CpG-DNA 2006 in presence of competitor; conditions: plates coated with 0.3 μM biotin-CpG-DNA 2006; competitor added to TLR9^YFP lysate; FIGS. 5A-D
T1 construct: expressed in transfected cells; host or cells: HEK cells stably expressing TLR9^YFP, used as cellular lysate
T1 sequence (Q9NR96 26-1032): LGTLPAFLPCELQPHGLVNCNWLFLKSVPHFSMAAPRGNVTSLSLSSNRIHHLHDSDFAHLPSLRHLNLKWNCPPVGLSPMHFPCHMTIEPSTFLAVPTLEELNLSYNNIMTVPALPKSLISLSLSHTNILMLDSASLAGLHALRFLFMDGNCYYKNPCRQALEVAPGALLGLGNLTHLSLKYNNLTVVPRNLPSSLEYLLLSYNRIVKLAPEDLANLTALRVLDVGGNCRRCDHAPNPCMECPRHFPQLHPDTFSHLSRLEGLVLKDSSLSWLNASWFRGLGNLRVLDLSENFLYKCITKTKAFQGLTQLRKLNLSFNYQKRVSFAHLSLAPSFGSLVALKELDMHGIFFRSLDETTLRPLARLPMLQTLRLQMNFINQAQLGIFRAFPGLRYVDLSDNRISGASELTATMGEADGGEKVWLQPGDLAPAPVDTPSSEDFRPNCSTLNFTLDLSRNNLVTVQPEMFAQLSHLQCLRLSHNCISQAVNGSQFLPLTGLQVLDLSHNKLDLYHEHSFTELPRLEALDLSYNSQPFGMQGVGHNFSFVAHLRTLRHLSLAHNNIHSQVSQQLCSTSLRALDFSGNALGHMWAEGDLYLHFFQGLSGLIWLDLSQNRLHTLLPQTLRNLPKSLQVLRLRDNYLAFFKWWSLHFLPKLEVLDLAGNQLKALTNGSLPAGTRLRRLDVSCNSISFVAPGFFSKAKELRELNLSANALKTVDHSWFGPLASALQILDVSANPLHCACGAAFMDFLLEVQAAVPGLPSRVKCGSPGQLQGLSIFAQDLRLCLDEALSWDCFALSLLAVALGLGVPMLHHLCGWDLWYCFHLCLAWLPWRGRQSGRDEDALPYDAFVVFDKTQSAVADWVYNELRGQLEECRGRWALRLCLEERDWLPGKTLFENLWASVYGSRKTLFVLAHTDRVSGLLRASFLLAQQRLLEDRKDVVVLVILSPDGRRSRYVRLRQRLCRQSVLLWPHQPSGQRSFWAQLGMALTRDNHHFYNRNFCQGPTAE
From the text: This assay can be adapted for use in drug-screening applications. For example, the interaction of TLR9 with CpG-DNA reflects a clinically important receptor/ligand interaction since a variety of autoimmune diseases are thought to be based on the interaction of DNA-antibody complexes with this receptor (Leadbetter et al., 2002, Nature 416:603-607). Thus, antagonists for this interaction are useful for the development of novel anti-inflammatory drugs. To examine the application of this assay to the identification of such compounds (e.g., compounds that increase or decrease the interaction) and so are potential drugs for ameliorating TLR-related disorders, a competition assay was developed that was based on the basic plate assay described above. The competition assay was performed essentially as described above for the plate assay. In addition, non-biotinylated CpG-DNA (“cold ligand”) or other compounds that interfere with TLR9 signaling (R848 or bacterial DNA) were added to the TLR9-containing lysates. The ability of the various compounds to inhibit binding of TLR9^YFP to the plate-bound biotinylated CpG-DNA was then evaluated.
In the assay, NeutrAvidin™ plates (Pierce) were coated with 0.3 μM biotin-CpG-DNA 2006 as described above. […]

TLR9 = molecular target: T2, TLR9 (Homo sapiens, UniProt Q9NR96); assay: TLR9 signaling in TLR9-expressing HEK cells; type: cell-based
T2 construct: expressed in transfected cells; host or cells: HEK293 cells stably expressing TLR^FP
T2 sequence (Q9NR96 26-1032): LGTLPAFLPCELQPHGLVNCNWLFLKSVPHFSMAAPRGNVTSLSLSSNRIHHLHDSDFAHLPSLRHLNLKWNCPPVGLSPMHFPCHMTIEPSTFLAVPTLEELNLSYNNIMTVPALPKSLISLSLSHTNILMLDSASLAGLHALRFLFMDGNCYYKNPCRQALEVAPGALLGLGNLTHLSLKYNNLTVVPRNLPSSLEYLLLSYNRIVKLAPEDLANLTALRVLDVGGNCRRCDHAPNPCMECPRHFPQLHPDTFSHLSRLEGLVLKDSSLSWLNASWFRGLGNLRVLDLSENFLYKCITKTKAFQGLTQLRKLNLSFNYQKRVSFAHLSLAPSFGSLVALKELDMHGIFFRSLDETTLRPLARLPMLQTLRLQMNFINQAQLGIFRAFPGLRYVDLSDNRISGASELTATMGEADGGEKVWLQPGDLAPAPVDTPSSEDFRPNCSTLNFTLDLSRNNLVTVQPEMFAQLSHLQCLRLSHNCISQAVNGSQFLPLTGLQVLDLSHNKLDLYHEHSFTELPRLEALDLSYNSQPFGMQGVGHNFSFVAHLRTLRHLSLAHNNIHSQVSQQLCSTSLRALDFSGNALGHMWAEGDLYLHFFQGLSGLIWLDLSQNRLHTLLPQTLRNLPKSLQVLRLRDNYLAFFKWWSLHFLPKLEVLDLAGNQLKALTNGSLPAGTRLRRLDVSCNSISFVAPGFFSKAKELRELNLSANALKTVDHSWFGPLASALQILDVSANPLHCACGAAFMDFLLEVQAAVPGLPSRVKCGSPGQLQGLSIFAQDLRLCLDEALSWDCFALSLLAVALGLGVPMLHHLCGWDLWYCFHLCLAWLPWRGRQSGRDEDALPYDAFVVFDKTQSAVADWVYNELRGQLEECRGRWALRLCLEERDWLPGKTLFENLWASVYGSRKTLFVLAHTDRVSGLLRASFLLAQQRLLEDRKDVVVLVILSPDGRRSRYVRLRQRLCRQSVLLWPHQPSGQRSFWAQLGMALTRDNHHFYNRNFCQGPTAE
Procedure: Cellular activation was assessed by NF-κB-luciferase reporter assay. Briefly, HEK293 cells that stably express a TLR^FP or empty vector (pcDNA) were seeded into 96-well tissue culture plates at a density of 2×10^4 cells/well. The following day, cells were transiently transfected with luciferase reporter genes using Genejuice (Novagen) per the manufacturer's recommendations. In order to assess NF-κB activation, an NF-κB-luciferase reporter gene consisting of an artificial promoter composed of a multimer of five NF-κB sites driving the firefly luciferase gene, was co-transfected with a constitutively active Renilla-luciferase reporter gene (Promega, Madison, Wis.).

TLR4:Fc = molecular target: T3, TLR4:Fc (Homo sapiens, UniProt O00206); assay: Cell-free ELISA: plated TLR4:Fc probed with biotinylated ligand; type: binding; conditions: FIG. 8B
T3 construct: the TLR2:Fc fusion protein and the related TLR4:Fc, were plated on plastic
T3 sequence (O00206 24-631 limits assumed, species assumed): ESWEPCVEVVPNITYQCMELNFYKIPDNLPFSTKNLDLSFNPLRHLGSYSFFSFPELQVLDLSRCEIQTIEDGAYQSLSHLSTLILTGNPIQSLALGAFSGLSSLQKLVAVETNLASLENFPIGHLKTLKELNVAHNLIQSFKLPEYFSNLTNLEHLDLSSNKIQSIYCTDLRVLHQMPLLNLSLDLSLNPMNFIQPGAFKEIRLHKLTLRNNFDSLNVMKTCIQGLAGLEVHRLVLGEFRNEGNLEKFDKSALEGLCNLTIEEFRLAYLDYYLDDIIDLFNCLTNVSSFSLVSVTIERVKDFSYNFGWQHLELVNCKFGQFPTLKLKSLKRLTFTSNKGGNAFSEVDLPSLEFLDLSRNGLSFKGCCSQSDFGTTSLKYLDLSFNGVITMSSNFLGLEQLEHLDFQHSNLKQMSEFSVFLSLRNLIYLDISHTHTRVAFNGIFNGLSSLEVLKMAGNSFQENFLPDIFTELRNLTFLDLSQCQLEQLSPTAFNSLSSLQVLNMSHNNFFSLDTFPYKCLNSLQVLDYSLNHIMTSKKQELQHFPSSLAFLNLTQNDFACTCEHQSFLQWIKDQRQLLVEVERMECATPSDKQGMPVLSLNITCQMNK
Procedure: (§1) Briefly, various TLR2 ligands were plated on plastic in carbonate buffer pH 9 for two hours at different concentrations (X axis) in duplicate points. After washing (PBS-0.05% Tween 20), a fusion protein consisting of the extracellular domain of TLR2 and the mouse Fc portion of immunoglobulin G, isotype 2a (TLR2:Fc, see U.S. Provisional Patent Application Ser. No. 60/598,774), was added at 1 mg/ml (0.1 mg/well).
(§2) In a similar setting, the TLR2:Fc fusion protein and the related TLR4:Fc, were plated on plastic and the biotinylated ligand used to probe the wells. The TLR2 bound biotinylated protein was reveled using a HRP conjugated anti biotin polyclonal antiserum (NEB).

TLR2:Fc = molecular target: T4, TLR2:Fc (Homo sapiens, UniProt O60603); assay: Cell-free ELISA: plated TLR2:Fc probed with biotinylated ligand; type: binding; conditions: FIG. 8B
T4 construct: a fusion protein consisting of the extracellular domain of TLR2 and the mouse Fc portion of immunoglobulin G, isotype 2a
T4 sequence (O60603 21-588 limits assumed, species assumed): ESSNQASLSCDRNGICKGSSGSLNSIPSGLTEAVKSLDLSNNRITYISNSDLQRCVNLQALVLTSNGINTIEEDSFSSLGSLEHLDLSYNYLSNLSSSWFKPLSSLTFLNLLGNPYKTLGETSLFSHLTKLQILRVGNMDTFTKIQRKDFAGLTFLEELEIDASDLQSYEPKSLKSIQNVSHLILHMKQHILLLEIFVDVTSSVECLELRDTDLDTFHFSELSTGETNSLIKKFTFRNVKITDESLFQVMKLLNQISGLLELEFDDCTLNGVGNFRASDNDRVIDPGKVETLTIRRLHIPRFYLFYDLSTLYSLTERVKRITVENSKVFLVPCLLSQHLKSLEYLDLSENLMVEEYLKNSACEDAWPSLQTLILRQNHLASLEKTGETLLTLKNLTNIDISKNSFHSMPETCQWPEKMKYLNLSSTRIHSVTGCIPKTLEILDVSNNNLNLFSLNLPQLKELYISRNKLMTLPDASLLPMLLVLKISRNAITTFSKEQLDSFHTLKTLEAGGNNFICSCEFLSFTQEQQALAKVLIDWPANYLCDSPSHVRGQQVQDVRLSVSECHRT
Procedure: as §1, §2

TLR2 = molecular target: T5, TLR2 (Homo sapiens, UniProt O60603); assay: NF-κB luciferase reporter assay in 293 cells stably expressing TLR2; type: cell-based; conditions: 0.01-10 μg/ml stimulant; FIG. 7B
T5 construct: expressed in transfected cells; host or cells: 293 (HEK 293) cells stably expressing TLR2
T5 sequence (O60603 21-784, species assumed): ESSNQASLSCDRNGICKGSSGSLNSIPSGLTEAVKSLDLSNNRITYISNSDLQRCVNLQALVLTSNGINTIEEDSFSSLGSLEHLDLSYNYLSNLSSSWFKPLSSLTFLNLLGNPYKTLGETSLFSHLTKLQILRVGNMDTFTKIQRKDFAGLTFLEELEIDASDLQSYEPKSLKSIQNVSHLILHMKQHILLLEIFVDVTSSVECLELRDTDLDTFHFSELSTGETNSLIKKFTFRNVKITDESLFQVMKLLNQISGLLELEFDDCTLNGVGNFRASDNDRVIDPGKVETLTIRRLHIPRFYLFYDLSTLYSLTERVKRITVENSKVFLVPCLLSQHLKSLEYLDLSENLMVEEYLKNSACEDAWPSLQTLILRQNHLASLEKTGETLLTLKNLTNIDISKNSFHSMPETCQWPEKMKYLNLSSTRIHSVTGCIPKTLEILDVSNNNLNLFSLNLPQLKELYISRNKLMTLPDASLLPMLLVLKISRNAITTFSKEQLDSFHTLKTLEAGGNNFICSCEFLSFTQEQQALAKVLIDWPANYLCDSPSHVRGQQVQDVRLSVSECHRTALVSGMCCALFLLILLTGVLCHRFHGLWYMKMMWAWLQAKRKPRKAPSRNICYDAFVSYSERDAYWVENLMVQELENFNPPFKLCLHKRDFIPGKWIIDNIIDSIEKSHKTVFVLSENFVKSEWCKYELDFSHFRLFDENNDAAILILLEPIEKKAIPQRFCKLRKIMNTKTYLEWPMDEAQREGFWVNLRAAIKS
T5 sequence (Q15399 25-786 partner, species assumed): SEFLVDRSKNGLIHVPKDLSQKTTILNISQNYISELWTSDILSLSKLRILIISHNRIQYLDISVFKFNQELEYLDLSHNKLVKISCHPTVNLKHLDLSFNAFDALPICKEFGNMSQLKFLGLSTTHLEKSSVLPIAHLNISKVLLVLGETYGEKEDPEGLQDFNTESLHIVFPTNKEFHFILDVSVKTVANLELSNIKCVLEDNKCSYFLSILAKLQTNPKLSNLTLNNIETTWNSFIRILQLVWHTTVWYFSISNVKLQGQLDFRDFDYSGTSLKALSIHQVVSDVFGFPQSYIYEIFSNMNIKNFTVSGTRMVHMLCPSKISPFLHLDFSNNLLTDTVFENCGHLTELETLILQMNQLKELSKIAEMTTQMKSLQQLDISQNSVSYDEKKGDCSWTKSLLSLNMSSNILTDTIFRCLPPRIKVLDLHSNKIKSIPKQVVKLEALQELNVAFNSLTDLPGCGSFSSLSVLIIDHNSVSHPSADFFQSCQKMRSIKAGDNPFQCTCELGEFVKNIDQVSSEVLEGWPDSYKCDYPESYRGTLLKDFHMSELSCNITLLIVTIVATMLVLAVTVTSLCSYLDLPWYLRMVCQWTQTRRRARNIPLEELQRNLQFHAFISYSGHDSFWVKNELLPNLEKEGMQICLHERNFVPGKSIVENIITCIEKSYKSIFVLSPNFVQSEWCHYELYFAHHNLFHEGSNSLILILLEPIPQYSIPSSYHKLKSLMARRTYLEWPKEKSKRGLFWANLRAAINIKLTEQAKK
Procedure: 293 cells stably expressing TLR4/MD-2 (as described in Visintin et al., 2003, J. Biol. Chem., 278(48):48313-48320) or TLR2 were stimulated using lipopolysaccharide (LPS) or PorinB, and the extent of activation measured as the activation of a NF-κB-dependent reporter gene encoding for the Luciferase gene. To measure NF-κB activation, 2 μg of a reporter plasmid in which NF-κB drives the synthesis of luciferase was transiently cotransfected with 5 μg of the indicated cDNA by lipofection (GeneJuice) in 10-cm tissue culture dishes following the manufacturer's recommendations. The following morning, cells were seeded at a density of 50,000 cells/well in a 96-well plate, allowed to recover for 5 hours, and stimulated as indicated between 6 and 18 hours. Luciferase activity was measured with a plate reader luminometer (Victor^2, PerkinElmer Life Sciences) using chemicals provided with the luciferase assay system (Promega, Madison, Wis.). All data are presented as the means ±S.D. of triplicate well readings, normalized to a value of 1.0 in comparison with an unstimulated negative control.

Molecule: CCOCc1nc2c(N)nc3ccccc3c2n1CC(C)(C)O [R848]
- Inhibition of TLR9 binding to biotinylated immobilized CpG-DNA (TLR9^YFP): did not interfere with the binding of TLR9 to CpG-DNA
- Inhibition of TLR9 signaling (TLR9): inhibited TLR9 signaling in a dose dependent manner

Molecule: bacterial alkaline phosphatase (BAP): bacterial alkaline phosphatase
- Binding of biotinylated ligand to plated TLR4:Fc (TLR4:Fc): not to TLR4:Fc
- Binding of biotinylated ligand to plated TLR2:Fc (TLR2:Fc): bind to TLR2:Fc

B1: PorinB: the protein PorinB from Neisseria meningitidis (protein)
chain: DVTLYGTIKAGVETSRSVFHQNGQVTEVTTATGIVDLGSKIGFKGQEDLGNGLKAIWQVEQKASIAGTDSGWGNRQSFIGLKGGFGKLRVGRLNSVLKDTGDINPWDSKSDYLGVNKIAEPEARLISVRYDSPEFAGLSGSVQYALNDNAGRHNSESYHAGFNYKNGGFFVQYGGAYKRHHQVQEGLNIEKYQIHRLVSGYDNDALYASVAVQQQDAKLTDASNSHNSQTEVAATLAYRFGNVTPRVSYAHGFKGLVDDADIGNEYDQVVVGAEYDFSKRTSALVSAGWLQEGKGENKFVATAGGVGLRHKF
- Binding of biotinylated ligand to plated TLR4:Fc (TLR4:Fc): did not
- Binding of biotinylated ligand to plated TLR2:Fc (TLR2:Fc): specifically bound
- NF-κB reporter activation in TLR2 expressing cells (TLR2): efficiently activates
